Biological target: Sso1pHT (yeast t-SNARE Sso1p without the Habc domain), labelled with Cy5 (yeast)
Assay: FRET or BRET

Snc2p (yeast v-SNARE), labelled with Cy3 (from UniProt P33328 1-115) (natural protein)
FRET efficiency of the single protein-protein complex (H): 0.96

Source: article PMC3773174
